Biological target: DnaE1 (replicative DNA polymerase);β-clamp (Mycobacterium …, UniProt P9WNT7;P9WNU1 1-1184;1-402, |)
Assay: cryo-EM 2D class average
Settings: protein: recombinant;recombinant; tags: His tag cleaved with HRV 3C protease;; copies: 1;2

DnaE1 (replicative DNA polymerase);β-clamp, sequence (P9WNT7 whole entry, chain 1 of 2): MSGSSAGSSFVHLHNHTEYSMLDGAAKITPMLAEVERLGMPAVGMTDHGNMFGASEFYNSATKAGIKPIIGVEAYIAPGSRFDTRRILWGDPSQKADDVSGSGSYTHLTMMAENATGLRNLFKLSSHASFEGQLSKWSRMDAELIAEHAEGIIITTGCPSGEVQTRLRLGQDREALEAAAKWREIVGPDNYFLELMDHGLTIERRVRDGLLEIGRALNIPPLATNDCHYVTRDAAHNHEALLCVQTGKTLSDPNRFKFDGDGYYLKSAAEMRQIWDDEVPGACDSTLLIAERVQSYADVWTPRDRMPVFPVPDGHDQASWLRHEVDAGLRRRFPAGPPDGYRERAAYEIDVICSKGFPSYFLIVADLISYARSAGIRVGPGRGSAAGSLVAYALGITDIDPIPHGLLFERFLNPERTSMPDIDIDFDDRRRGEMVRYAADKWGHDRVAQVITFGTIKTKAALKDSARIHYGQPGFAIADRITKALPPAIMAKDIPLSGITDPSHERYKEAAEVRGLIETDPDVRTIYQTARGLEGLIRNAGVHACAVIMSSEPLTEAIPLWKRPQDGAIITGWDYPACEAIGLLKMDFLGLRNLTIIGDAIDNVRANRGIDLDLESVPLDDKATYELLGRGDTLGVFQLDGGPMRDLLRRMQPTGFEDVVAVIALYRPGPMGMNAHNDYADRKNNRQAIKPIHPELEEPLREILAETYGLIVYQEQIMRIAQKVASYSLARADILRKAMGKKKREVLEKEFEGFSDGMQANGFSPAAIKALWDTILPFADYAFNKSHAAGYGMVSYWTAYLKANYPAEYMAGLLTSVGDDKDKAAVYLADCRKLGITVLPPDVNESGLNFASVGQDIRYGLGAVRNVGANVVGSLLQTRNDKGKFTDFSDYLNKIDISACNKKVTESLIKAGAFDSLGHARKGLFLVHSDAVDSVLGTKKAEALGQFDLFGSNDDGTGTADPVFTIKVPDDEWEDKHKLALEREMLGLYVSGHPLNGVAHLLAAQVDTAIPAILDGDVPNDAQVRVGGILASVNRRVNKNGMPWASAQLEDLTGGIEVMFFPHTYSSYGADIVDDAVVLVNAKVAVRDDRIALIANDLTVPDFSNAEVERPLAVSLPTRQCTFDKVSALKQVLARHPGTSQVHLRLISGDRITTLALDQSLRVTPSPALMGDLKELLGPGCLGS
DnaE1 (replicative DNA polymerase);β-clamp, sequence (P9WNU1 whole entry, chain 2 of 2): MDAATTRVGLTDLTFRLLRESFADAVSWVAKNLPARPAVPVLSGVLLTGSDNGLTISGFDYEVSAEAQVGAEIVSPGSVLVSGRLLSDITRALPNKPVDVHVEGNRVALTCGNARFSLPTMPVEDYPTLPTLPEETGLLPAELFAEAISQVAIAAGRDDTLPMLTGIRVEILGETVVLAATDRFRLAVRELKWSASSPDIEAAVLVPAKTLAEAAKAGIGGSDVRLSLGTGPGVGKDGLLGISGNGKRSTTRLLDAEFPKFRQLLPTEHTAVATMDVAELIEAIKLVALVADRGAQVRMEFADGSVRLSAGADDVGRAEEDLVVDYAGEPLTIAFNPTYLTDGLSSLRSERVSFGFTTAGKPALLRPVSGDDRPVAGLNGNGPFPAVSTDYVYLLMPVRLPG

B1: mismatched primer-template cryo-EM substrate (dsDNA)
DNA 1: CCCCTCAGGAGTCCTTCGTCCTAGTACTACTCC
DNA 2: GGAGTAGTACTAGGACGAAGGACGT
modifications: phosphorothioate between last two nt of primer (GsT)
Question: Does B1 bind?
Answer: Result: binds

Source: paper PMC5636811, “High-fidelity DNA replication in Mycobacterium tuberculosis relies on a trinuclear zinc center”
